Data from paper PMC10825657.

Substrate: Cc1c(CC(=O)NCCCC[C@H](NC(=O)CCN)C(=O)O)c(=O)oc2cc(N)ccc12
Assay: cells, lysate or membranes
Conditions: HBSS with 20 mM Hepes, 300 mOsmol/kg (control); fluorescent substrate 0-500 μM

B1: PepT2 (Oreochromis mossambicus) (protein)
chain: MGKKLFGTNYPVSICFIVVNEFCERFSYYGMKALLTLYFLNYLKWDKDLSTAVYHAFSGLCYFTPILGAFIADSWLGKYKTIIYLSIVYVIGHVVKSVGAIPTVGSTELHIALSMSGLILIALGTGGIKPCVAAFGGDQFGEEHITERQKFFSIFYMSINAGSFLSTIITPILRGDVQCFGGDCYALAFGVPAALMVVALVVFIAGSSLYKRTPPQGNILWEVCNCIGFALKNRWNKSKHDSPRQHWLDWAEEKYSMRLIQEIKMVLRVLVLYIPLPMFWALFDQQGSRWTLQATRMNLAFGNSFAIKPDQMQMLNALLILVFVPIFDLIIYPLVRLCGLKITPLRKMAVGMVFAALAFGAATLVEVNVVKTVVNPAPAGKCLLQVVNLAKGDVSLKAPGTDLFLQSIKYLEDPPGYETVPLSNGELNLEVTGVNGETFSATQKVEEKKAYSVIIYPDAAGITYTLVEDHITKNEDGNPLLRFLNTQPEALNVTVGDKNFYMSSGYNVTHNKTVQRGEYTHATCISNSGKTSKLNLGLLDFGACYTVILTEEAGEIVPHKIEDVKANNVHIAYQIPQYILITAGEVMFSITGLEFSYSQAPANMKSVLQAGWLLTVAFGNVIVLIVAEGAGLEQWIEFLLFACLLLGVCIIFSIMAHFYTYVDPEEMEKLYLENSVKEEDDSDFKKKNNEIQLNKTGKSTRM
**Q.** B1 was tested. Which Km did it give?
**A.** 178.78 ± 19.78 µM
